Measurements taken from article PMC11087509, “Multimodal binding and inhibition of bacterial ribosomes by the antimicrobial peptides Api137 and Api88” (Nature Communications, 2024).
[ ]: non-standard residue; d: D form.

Biological target: purified E. coli 30S ribosomal subunit (E. coli (endogenous in MRE600))
Experiment: fluorescence polarisation; cf-labeled peptide (10 µL of 40 nmol/L) added to a 2-fold dilution series (22 steps, 10 µL) of pure 70S ribosome, 50S or 30S subunit; ribosome preparation buffer (20 mmol/L HEPES-KOH, 6 mmol/L MgCl2, 30 mmol/L NH4Cl, pH 7.6); 28 ± 1 °C, 90 min; apparent Kd (average over at least two or three sites)

- fold weaker binding than to the 50S subunit: 23 fold
Binder: {5(6)‑carboxyfluorescein}-VDKPPYLPRPRPPR[dR]IYN[dR]-NH2 [cf-Onc112 (5(6)-carboxyfluorescein-labeled Onc112, …rIYNr-NH2)]
